# Source: IntAct's records for PubMed 21423214
# B1: Tyrosine-protein kinase JAK2 (Mus musculus), Q62120 (parent)
# chain: MGMACLTMTEMEATSTSPVHQNGDIPGSANSVKQIEPVLQVYLYHSLGQAEGEYLKFPSGEYVAEEICVAASKACGITPVYHNMFALMSETERIWYPPNHVFHIDESTRHDILYRIRFYFPHWYCSGSSRTYRYGVSRGAEAPLLDDFVMSYLFAQWRHDFVHGWIKVPVTHETQEECLGMAVLDMMRIAKEKDQTPLAVYNSVSYKTFLPKCVRAKIQDYHILTRKRIRYRFRRFIQQFSQCKATARNLKLKYLINLETLQSAFYTEQFEVKESARGPSGEEIFATIIITGNGGIQWSRGKHKESETLTEQDVQLYCDFPDIIDVSIKQANQECSNESRIVTVHKQDGKVLEIELSSLKEALSFVSLIDGYYRLTADAHHYLCKEVAPPAVLENIHSNCHGPISMDFAISKLKKAGNQTGLYVLRCSPKDFNKYFLTFAVERENVIEYKHCLITKNENGEYNLSGTKRNFSNLKDLLNCYQMETVRSDSIIFQFTKCCPPKPKDKSNLLVFRTNGISDVQISPTLQRHNNVNQMVFHKIRNEDLIFNESLGQGTFTKIFKGVRREVGDYGQLHKTEVLLKVLDKAHRNYSESFFEAASMMSQLSHKHLVLNYGVCVCGEENILVQEFVKFGSLDTYLKKNKNSINILWKLGVAKQLAWAMHFLEEKSLIHGNVCAKNILLIREEDRRTGNPPFIKLSDPGISITVLPKDILQERIPWVPPECIENPKNLNLATDKWSFGTTLWEICSGGDKPLSALDSQRKLQFYEDKHQLPAPKWTELANLINNCMDYEPDFRPAFRAVIRDLNSLFTPDYELLTENDMLPNMRIGALGFSGAFEDRDPTQFEERHLKFLQQLGKGNFGSVEMCRYDPLQDNTGEVVAVKKLQHSTEEHLRDFEREIEILKSLQHDNIVKYKGVCYSAGRRNLRLIMEYLPYGSLRDYLQKHKERIDHKKLLQYTSQICKGMEYLGTKRYIHRDLATRNILVENENRVKIGDFGLTKVLPQDKEYYKVKEPGESPIFWYAPESLTESKFSVASDVWSFGVVLYELFTYIEKSKSPPVEFMRMIGNDKQGQMIVFHLIELLKSNGRLPRPEGCPDEIYVIMTECWNNNVSQRPSFRDLSLRVDQIRDSIAA
# Variants of: B1
# Conditions: with cdn1b_human CDKN1B
row,effect of a mutation on the interaction,Variant
1,increasing interaction strength,V617F
